Reference: patent US20240279324A1

Target: VEGF (human) (UniProt P15692)
Assay: VEGF blocking assay (luminescence)

Chain of VEGF (human) (P15692 other isoform, or with tags, fused parts or gaps): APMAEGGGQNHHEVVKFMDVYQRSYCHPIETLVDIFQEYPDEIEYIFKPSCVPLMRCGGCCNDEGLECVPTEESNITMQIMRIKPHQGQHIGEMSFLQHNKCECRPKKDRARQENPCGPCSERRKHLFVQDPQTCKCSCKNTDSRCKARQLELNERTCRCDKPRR

IC50: 0.107 nM
Substance: Avastin
